Assay results as given in the supplement of paper PMC9170038.

Test system: MS2 coat protein
Test: apparent KD of MS2 coat protein; designed switch direction (-1 OFF switch, 1 ON switch): -1; higher = weaker reporter binding
Summary of the method: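 Designed RNA switches were transcribed on Illumina chips by stalled E. coli RNA polymerase and titrated with SNAP-549-labelled MS2 coat protein from 0.7 or 1.5 nM, doubling to 3 µM. Step length ran from 0.8–1.5 h at the lowest concentration to 10–20 min at the highest. The apparent KD is the median over clusters for each design, from curve-fitted normalised cluster fluorescence.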

[1] = input ligand: microRNA oligo, concentration not stated
[2] = Eterna round: R95, input ligand: microRNA oligo, concentration not stated
[3] = Eterna round: R95, input ligand: FMN 200 uM
[4] = Eterna round: R95, input ligand: none

Sequence | apparent KD of MS2 coat protein (input ligand: FMN 200 uM) | apparent KD of MS2 coat protein (input ligand: none) | apparent KD of MS2 coat protein [1] | apparent KD of MS2 coat protein [2] | apparent KD of MS2 coat protein [3] | apparent KD of MS2 coat protein [4]
AACAGUGAUGAGGAUAUAUAAAGAGAAAAGAAAAUAGAAGGUGUCACAUGAGGAUCACCCAUGUGUUCUUCAGA [EX6 A.12] (Eterna round: R97, puzzle: Exclusion 6) | 17.4 nM | 16.5 nM |  |  |  | 
GCGUUUUGGUGAGGAUAUCGGCCCUAAACCGGGCAACAUGAGGAUCACCCAUGUACGUGAUCCUGCGAGAAGGCACCGAUUAUA [Digeerle] (Eterna round: R96, puzzle: Exclusion NG 2) | 122 nM | 123 nM | 104 nM |  |  | 
GAGUGACAUGAGGAUCACCCAUGUGAGGAUAUCGGCCGGACCUUGUUAGCUUCCGCCGCGAGAAGGCACAUCGG [Exclusion 1 V28] (puzzle: Exclusion 1) |  |  |  | 55.9 nM |  | 
GGGAAGGGAGGAUAUGAGGGAGAGAACAUGAGGAUCACCCAUGUGAGACCUCAGGAUCGAUCAGAAGGCCCGACCC [AK-MS2ROC-r4-exclusion5-13.1] (Eterna round: R97, puzzle: Exclusion 5) | 824 nM | 92.2 nM |  |  |  | 
CCCACAAGCUUUUUGCUCGACAUGAGGAUCACCCAUGUUGAAUGGGUUAGAUGUGUGUGAAACAUAUAUAUUUACCU [-24.2, -47 kcal, A 27%] (Eterna round: R97, puzzle: Sensor, turn-off variant 1) | 25.5 nM | 26.4 nM |  |  |  | 
AUAAUGUGAGGAUAUCGAGACUACUGCUUCGGCAGUAGUCUCGAGAAGGCACAUGAGGAUCACCCAUGUGAUCA [E4/2-A1] (Eterna round: R97, puzzle: Exclusion 4) | 56.6 nM | 685 nM |  |  |  | 
AAAUUAGCAAGUAGGUCCGACAUGAGGAUCACCCAUGUAAUCUAAUAUUACGCUGCAUGAGAGUGCGCUCGUCUUAG [Sensor-V1 #17] (Eterna round: R97, puzzle: Sensor, turn-off variant 1) | 241 nM | 337 nM |  |  |  | 
ACGCCUAUAGUGAGGAUAUUGCGGGUAGGUAUUUGCAAGAAGGCACUUGAGGAUCACCCAAGUGAAGAAGUUGC [Geusra] (Eterna round: R97, puzzle: Brourd's mod of Exclusion 4) | 14.7 nM | 15.1 nM |  |  |  | 
GCAAGCUUAAUCAGUAUGAACAUGAGGAUCACCCAUGUAUAAGGUAAUACUUUUGGGCCCUUUAUUACUCGUCUUAU [JR_STOV1_Sub029] (Eterna round: R97, puzzle: Sensor, turn-off variant 1) | 67.4 nM | 72.6 nM |  |  |  | 
AAUGGUAAAGUCAGGAUAUACGUACGUCGUUCUAGGUAGAAGGGACAUGAGGAUCACCCAUGUAUGAUAGUAAA [Ex4 #34] (Eterna round: R97, puzzle: Brourd's mod of Exclusion 4) | 24.1 nM | 32.9 nM |  |  |  | 
GAUUAUGCGAGCUUUAGGGACAUGAGGAUCACCCAUGUUCGUCUUAUUAGUCUGGGUACACUAACAUACCUAAAUCU [JMF 21] (puzzle: Sensor v3, turn-off variant 1) |  |  |  | 43.6 nM | 26.9 nM | 30.4 nM
AGUAAUUCAAGAGGAUAUCACAUGAGGAUCACCCAUGUAUAGCGCGCUACGCUAGUCCUCGUAUUUGAGAAGGUUUGAUAAAAG [Mat - Exclusion NG 2 - Mod of JL - D76] (Eterna round: R96, puzzle: Exclusion NG 2) | 18.7 nM | 17.5 nM | 13.4 nM |  |  | 
AAAUUAGCAAGUAGAUCCGACAUGAGGAUCACCCAUGUUAUCUGAAAGAACGCAGAAUAAUUGUGAGCUCGUCUAAA [Sensor-V1 #3] (Eterna round: R97, puzzle: Sensor, turn-off variant 1) | 162 nM | 181 nM |  |  |  | 
UUUUUAUAUGAAGGAUAUACUUAACAUGAGGAUCACCCAUGUGGUGUUGUGAGUGAGUGAGUUUAGUAGAAGGUCAAUGAUUUG [JMF's solution 63] (Eterna round: R96, puzzle: Exclusion NG 2) | 894 nM | 563 nM | 237 nM |  |  | 
UGCGCUUAAGGAUAUACUUCGGUGCGCCGAGAGUACGGCUAACUUGAGGAUCACCCAAGUAGAAGGUAAGAAAC [Esleberibe] (Eterna round: R97, puzzle: Exclusion 2) | 42 nM | 1270 nM |  |  |  | 
GGUGGACAUGAGGAUCACCCAUGUGAGGAUAUCGGCUGGUACGUGUUGGCUGGCAUCUCGAGAAGGCACAUCGU [Exclusion 1 V64] (Eterna round: R96, puzzle: Exclusion 1) | 181 nM | 49 nM | 46 nM |  |  | 
UGCUACAUGAGGAUCACCCAUGUAAUGUGGGAUUCGUUAGGACAGGAUAUGAUUGUAUUGUUUUUUCAGAAGGGUCAUUACUUU [JR_ExcNG3_Sub011] (Eterna round: R96, puzzle: Exclusion NG 3) | 74.4 nM | 52.9 nM | 34.6 nM |  |  | 

Sequence | apparent KD of MS2 coat protein (input ligand: FMN 200 uM) | apparent KD of MS2 coat protein (input ligand: none) | apparent KD of MS2 coat protein [1] | apparent KD of MS2 coat protein [2] | apparent KD of MS2 coat protein [3] | apparent KD of MS2 coat protein [4]
CUGUGCACGCUGCGGUCCUACAUGAGGAUCACCCAUGUGGUCUGGUGGCGUGGGUCGCCGGACUUGGCUCGUCUUGU [salish99_S_TOV1_R5_024] (Eterna round: R97, puzzle: Sensor, turn-off variant 1) | 18.2 nM | 19.3 nM |  |  |  | 
GAUCCACAUGAGGAUCACCCAUGUGAGGAUAUGAUACUAUGUACUUCGGUACAUAGUAUCAGAAGGCACGGGUC [Ex1-3: 55] (puzzle: Exclusion 1) |  |  |  | 72.5 nM |  | 
GGUGGACAUGAGGAUCACCCAUGUGAGGAUAUCGGCUGGUACGUGUUGGCUGGCAUCUCGAGAAGGCACAUCGU [Exclusion 1 V64] (puzzle: Exclusion 1) |  |  |  | 44.8 nM |  | 
UUAUUAUAUGUAGGAUAUGCAUAUUGUUGUUAUGCAGAAGGACAUGAGGAUCACCCAUGUAUAUUGUUGUUGUAUAUUAUAUAU [Title] (Eterna round: R96, puzzle: Exclusion NG 1) | 33.2 nM | 23.3 nM | 22.6 nM |  |  | 
GGAUCGAGUGUGAGGAUAUACCACUGGAUACAGUGGUAGAAGGCACAUGAGGAUCACCCAUGUCUCUACGAUCC [Fiskers BMX 4 - 44] (puzzle: Brourd's mod of Exclusion 4) |  |  |  | 16.3 nM |  | 
GCGUGACAUGAGGAUCACCCAUGUGAGGAUAUCUGGAUAAUCUUUAUUUUAGAUAUCCAGAGAAGGCACAUGCU [Ex1-3: 3Z] (puzzle: Exclusion 1) |  |  |  | 170 nM |  | 
AAGUAACAUGAGGAUCACCCAUGUUAGGAUAUCUCGGCCACAGGAUCCCUGUGAAGCCAGAGAAGGAGCGGGUG [Ceraso] (Eterna round: R97, puzzle: Exclusion 1) | 169 nM | 202 nM |  |  |  | 
UUACAAUGUCGCUUACAAGCUUUUUGCUCGUCUUAUAUUACAUGAGGAUCACCCAUGUAGAUCAUGUGGCGUGACCU [JL ViennaUCT Maridi mod 9] (puzzle: Sensor v3, turn-off variant 2) |  |  |  | 23.3 nM | 165 nM | 208 nM
UAAAGUAUAUAGGAUAUCUAGCUGGAAACAGCUAGAGAAGGAUGUACAUGAGGAUCACCCAUGUAAAACCUCAA [Ex6/17-A1] (Eterna round: R97, puzzle: Exclusion 6) | 45.4 nM | 18.3 nM |  |  |  | 
CGAUGUGGAGUGAGGAUAUCGUGUUCGAAAGAACGUGAGAAGGCACAUGAGGAUCACCCAUGUGAUCCAUGUCG [Omei Ex4B A8] (Eterna round: R97, puzzle: Brourd's mod of Exclusion 4) | 31.7 nM | 26.4 nM |  |  |  | 
CUACUCGUUGUGAGGAUAUCGUUUUCGUCACGGAUCGAGAAGGCACAUGAGGAUCACCCAUGUUUGAUGUGGAU [JR_BMOE4_Sub091] (puzzle: Brourd's mod of Exclusion 4) |  |  |  | 30.9 nM |  | 
CUUUAGCAAGCGAGAUCCCACAUGAGGAUCACCCAUGUGCAUCCAGAAUUACUGGGUGCAAAAGCUCGUCUUAUAUC [mod-Eli newdang-1b] (Eterna round: R97, puzzle: Sensor, turn-off variant 1) | 58.4 nM | 62.6 nM |  |  |  | 
UACUGGACAGGAUAUGUUCUUGAGCACUUGAGGAUCACCCAAGUCAUCAAGAACUCAGGCACAGAAGGGUUUAUGU [salish99_ex5_r4_005] (Eterna round: R97, puzzle: Exclusion 5) | 70.2 nM | 18.5 nM |  |  |  | 
CGUUACUACAAGCUUUGGGACAUGAGGAUCACCCAUGUUCGUCUUAUUGUAGUAGGUACGCUGACGUACCUACUACU [JL-sv1-2.10 Brourd mod] (puzzle: Sensor v3, turn-off variant 1) |  |  |  | 29 nM | 15.6 nM | 13.9 nM
GCAUGUCUUAAGGAUAUGCUAAGGCGUGAGCCAGCAGAAGGUAAGACAUGAGGAUCACCCAUGUUUUCCUAAAA [jl-ex6-4.33 ViennaUCT mod] (Eterna round: R97, puzzle: Exclusion 6) | 68.5 nM | 18.9 nM |  |  |  | 
GUUAAGGUAGGAUAUACGAUAAUAUAGGGUAGAAUAUUAACACAUGAGGAUCACCCAUGUAGAAGGACCAAUUG [Mat - Exclusion 2 - Mod of my Tesla design - D51] (puzzle: Exclusion 2) |  |  |  | 21.1 nM | 38.7 nM | 22.8 nM
CCUGUGACGCAGGAUAUCGAGCACAAUGCAUGUUGAGAAGGGCGUACAUGAGGAUCACCCAUGUCUCACGUAGG [Eternabot (L1) Solution 53] (Eterna round: R97, puzzle: Exclusion 6) | 175 nM | 316 nM |  |  |  | 
